Data published in the supplement of paper PMC9428881.
± gives the standard error.

Test: background-corrected fluorescence of 3'-dye-labeled ssDNA relative to brightest sequence (3'-GCGCG) (fraction); higher = brighter dye fluorescence (less quenching)
Protocol: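 Single-stranded DNA is synthesized in situ on glass microarrays by 5'->3' photolithographic synthesis, with a Cy3 or Cy5 phosphoramidite coupled at the 3' end next to all 1024 permuted pentamers P1-P5. The construct is 5'-T5-(ACGT minus P5..P1 trinucleotides)-T15-P5P4P3P2P1-dye-3'; the dye is a 3' terminal modification, not part of the sequence. Arrays were scanned at 532 nm (Cy3) or 635 nm (Cy5), background from unlabeled oligos was subtracted, and values are averaged over 10 replicate features per array and at least 3 independent syntheses.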

Sequence	background-corrected fluorescence (dye: Cy3 (3' terminal))	background-corrected fluorescence (dye: Cy5 (3' terminal))
TTTTTTGATGATGATGCGCATTTTTTTTTTTTTTTCCCAT [TACCC]	0.49 ± 0.03	0.356 ± 0.015
TTTTTTCATGCTGAGCATCATTTTTTTTTTTTTTTGACTG [GTCAG]	0.511 ± 0.03	0.39 ± 0.032
TTTTTTCATGAGCATGATCATTTTTTTTTTTTTTTGCTCG	0.517 ± 0.015	0.375 ± 0.033
TTTTTTGCTCAGCATGATCATTTTTTTTTTTTTTTAGTCG [GCTGA]	0.579 ± 0.024	0.444 ± 0.036
TTTTTGCATCATGCTGATGATTTTTTTTTTTTTTTTGACC [CCAGT]	0.418 ± 0.027	0.3 ± 0.02
TTTTTTGCTGATGAGCATGCTTTTTTTTTTTTTTTACCTA [ATCCA]	0.449 ± 0.018	0.366 ± 0.019
TTTTTTGCTCAGCAGCATCATTTTTTTTTTTTTTTAGTTG [GTTGA]	0.516 ± 0.037	0.408 ± 0.034
TTTTTTGATCAGCATGCGCATTTTTTTTTTTTTTTCGTAT [TATGC]	0.555 ± 0.018	0.401 ± 0.064
TTTTTTCATGCTGCTGCTGCTTTTTTTTTTTTTTTGAAAA [AAAAG]	0.63 ± 0.012	0.491 ± 0.052
TTTTTGCATGATGCTCAGCATTTTTTTTTTTTTTTTCAGT [TGACT]	0.596 ± 0.016	0.488 ± 0.05
TTTTTGCAGCAGCAGCAGCATTTTTTTTTTTTTTTTTTTT	0.489 ± 0.032	0.34 ± 0.015
TTTTTTGATGAGCATGCTGATTTTTTTTTTTTTTTCCTAC [CATCC]	0.45 ± 0.02	0.306 ± 0.042
TTTTTTGCTGCTGCTGCGCATTTTTTTTTTTTTTTAAAAT	0.596 ± 0.022	0.462 ± 0.077
TTTTTGCATCAGCAGCATCATTTTTTTTTTTTTTTTGTTG [GTTGT]	0.515 ± 0.027	0.373 ± 0.017
TTTTTTGATGATCATGATGCTTTTTTTTTTTTTTTCCGCA [ACGCC]	0.539 ± 0.034	0.475 ± 0.024
TTTTTTGAGCAGCAGCAGCATTTTTTTTTTTTTTTCTTTT	0.494 ± 0.021	0.357 ± 0.035
TTTTTTGCTGATCATGCTCATTTTTTTTTTTTTTTACGAG [GAGCA]	0.62 ± 0.017	0.507 ± 0.078
TTTTTTCATCATCATGCTGATTTTTTTTTTTTTTTGGGAC [CAGGG]	0.536 ± 0.029	0.401 ± 0.025
TTTTTGCATGCGCATCATGATTTTTTTTTTTTTTTTATGC [CGTAT]	0.5 ± 0.026	0.377 ± 0.024
TTTTTTGAGCATGCGCATCATTTTTTTTTTTTTTTCTATG [GTATC]	0.564 ± 0.015	0.383 ± 0.029
TTTTTTGCTGATGATGCTGATTTTTTTTTTTTTTTACCAC [CACCA]	0.405 ± 0.01	0.286 ± 0.018
TTTTTTGCGCAGCATGCTGATTTTTTTTTTTTTTTATTAC [CATTA]	0.405 ± 0.022	0.334 ± 0.032

Sequence	background-corrected fluorescence (dye: Cy3 (3' terminal))	background-corrected fluorescence (dye: Cy5 (3' terminal))
TTTTTTGCTGCTGCTCATGATTTTTTTTTTTTTTTAAAGC [CGAAA]	0.538 ± 0.018	0.426 ± 0.021
TTTTTTCATGCTGCGCATCATTTTTTTTTTTTTTTGAATG [GTAAG]	0.489 ± 0.022	0.367 ± 0.029
TTTTTTCAGCATGCTGCTGCTTTTTTTTTTTTTTTGTAAA [AAATG]	0.618 ± 0.014	0.513 ± 0.028
TTTTTGCAGCATCATCATGCTTTTTTTTTTTTTTTTTGGA [AGGTT]	0.689 ± 0.02	0.638 ± 0.054
TTTTTTGCTGCGCATGATGATTTTTTTTTTTTTTTAATCC [CCTAA]	0.376 ± 0.013	0.29 ± 0.018
TTTTTGCATCATCATGATCATTTTTTTTTTTTTTTTGGCG [GCGGT]	0.631 ± 0.026	0.516 ± 0.065
TTTTTTCATGCGCATCAGCATTTTTTTTTTTTTTTGATGT [TGTAG]	0.653 ± 0.025	0.478 ± 0.04
TTTTTTCAGCAGCATGCGCATTTTTTTTTTTTTTTGTTAT [TATTG]	0.546 ± 0.048	0.389 ± 0.017
TTTTTTGATGCTGCTGCTCATTTTTTTTTTTTTTTCAAAG [GAAAC]	0.535 ± 0.017	0.396 ± 0.026
TTTTTTGCTGCGCAGCATCATTTTTTTTTTTTTTTAATTG [GTTAA]	0.561 ± 0.03	0.381 ± 0.025
TTTTTTCATGATGCTGAGCATTTTTTTTTTTTTTTGCACT [TCACG]	0.482 ± 0.048	0.339 ± 0.024
TTTTTGCATCATGCTGCGCATTTTTTTTTTTTTTTTGAAT [TAAGT]	0.558 ± 0.032	0.436 ± 0.035
TTTTTTGATGATGATGCTGATTTTTTTTTTTTTTTCCCAC [CACCC]	0.373 ± 0.022	0.294 ± 0.044
TTTTTTGCGCATCAGCATGCTTTTTTTTTTTTTTTATGTA	0.549 ± 0.017	0.47 ± 0.039
TTTTTTCATCAGCATCAGCATTTTTTTTTTTTTTTGGTGT [TGTGG]	0.663 ± 0.02	0.511 ± 0.037
TTTTTGCATGCTGATGATCATTTTTTTTTTTTTTTTACCG [GCCAT]	0.55 ± 0.026	0.439 ± 0.027
TTTTTTCATGAGCAGCATGCTTTTTTTTTTTTTTTGCTTA [ATTCG]	0.534 ± 0.026	0.408 ± 0.03
TTTTTGCATGCTGATGATGATTTTTTTTTTTTTTTTACCC [CCCAT]	0.408 ± 0.012	0.276 ± 0.019
TTTTTGCATGCGCATCATGCTTTTTTTTTTTTTTTTATGA [AGTAT]	0.625 ± 0.025	0.579 ± 0.047
TTTTTTGATGCTGCGCAGCATTTTTTTTTTTTTTTCAATT [TTAAC]	0.538 ± 0.027	0.385 ± 0.029
TTTTTTGATGCGCATCATGCTTTTTTTTTTTTTTTCATGA [AGTAC]	0.672 ± 0.026	0.579 ± 0.038
TTTTTGCATCATCATGAGCATTTTTTTTTTTTTTTTGGCT [TCGGT]	0.549 ± 0.017	0.442 ± 0.053

Sequence	background-corrected fluorescence (dye: Cy3 (3' terminal))	background-corrected fluorescence (dye: Cy5 (3' terminal))
TTTTTTGATCATCATCATGATTTTTTTTTTTTTTTCGGGC	0.576 ± 0.032	0.487 ± 0.024
TTTTTTCATGATGCGCATGATTTTTTTTTTTTTTTGCATC [CTACG]	0.441 ± 0.025	0.288 ± 0.026
TTTTTTGATGCTGAGCATCATTTTTTTTTTTTTTTCACTG [GTCAC]	0.487 ± 0.028	0.398 ± 0.035
TTTTTTCATGATCATGCTCATTTTTTTTTTTTTTTGCGAG [GAGCG]	0.608 ± 0.03	0.51 ± 0.085
TTTTTTGAGCATGCGCATGATTTTTTTTTTTTTTTCTATC	0.373 ± 0.025	0.309 ± 0.018
TTTTTGCAGCATGATGCTGCTTTTTTTTTTTTTTTTTCAA [AACTT]	0.545 ± 0.04	0.422 ± 0.055
TTTTTTCATGCTCATGCTCATTTTTTTTTTTTTTTGAGAG	0.6283 ± 0.0056	0.492 ± 0.024
TTTTTTGATGCGCATCAGCATTTTTTTTTTTTTTTCATGT [TGTAC]	0.615 ± 0.028	0.464 ± 0.032
TTTTTTCATCATCATCATGCTTTTTTTTTTTTTTTGGGGA [AGGGG]	0.753 ± 0.014	0.757 ± 0.038
TTTTTTGCTCATCATCATGCTTTTTTTTTTTTTTTAGGGA	0.707 ± 0.036	0.642 ± 0.037
TTTTTTCAGCAGCATGCTGCTTTTTTTTTTTTTTTGTTAA [AATTG]	0.57 ± 0.032	0.446 ± 0.027
TTTTTTCATGCGCATGCTGCTTTTTTTTTTTTTTTGATAA [AATAG]	0.587 ± 0.042	0.452 ± 0.031
TTTTTTCATGCTGATCATGCTTTTTTTTTTTTTTTGACGA [AGCAG]	0.642 ± 0.026	0.52 ± 0.025
TTTTTTCATCATGCTCATGCTTTTTTTTTTTTTTTGGAGA [AGAGG]	0.726 ± 0.026	0.594 ± 0.04
TTTTTTGCTGATGATCAGCATTTTTTTTTTTTTTTACCGT [TGCCA]	0.624 ± 0.025	0.479 ± 0.034
TTTTTTGATCATCATGATGATTTTTTTTTTTTTTTCGGCC [CCGGC]	0.465 ± 0.022	0.364 ± 0.027
TTTTTTGAGCAGCATGCTGCTTTTTTTTTTTTTTTCTTAA [AATTC]	0.562 ± 0.019	0.427 ± 0.039
TTTTTGCAGCAGCATCATGATTTTTTTTTTTTTTTTTTGC [CGTTT]	0.495 ± 0.024	0.341 ± 0.032
TTTTTGCATGATGCTGATCATTTTTTTTTTTTTTTTCACG [GCACT]	0.491 ± 0.03	0.399 ± 0.022
TTTTTTCAGCATGCTCATCATTTTTTTTTTTTTTTGTAGG [GGATG]	0.618 ± 0.027	0.51 ± 0.1
TTTTTTGCTCAGCAGCATGATTTTTTTTTTTTTTTAGTTC [CTTGA]	0.433 ± 0.023	0.335 ± 0.025
TTTTTTGAGCATCAGCATGATTTTTTTTTTTTTTTCTGTC	0.443 ± 0.03	0.352 ± 0.018
